Consider one molecule from patent publication US20210154314A1.

Test [1] addresses Her2 (ErbB2) (UniProt P04626). As to the kind of experiment: ligand binding assay ('Binding Activity'), format not described; lyophilized formula B2 after 37 C for 1 month.
The target in test [2] is Her2 (ErbB2) (UniProt P04626). As to the kind of experiment: ligand binding assay ('Binding Activity'), format not described; lyophilized formula B4 after 37 C for 1 month.
Test [3] addresses Her2 (ErbB2) (UniProt P04626). As to the kind of experiment: ligand binding assay ('Binding Activity'), format not described; lyophilized formula B6 after 37 C for 1 month.
Test [4] deals with Her2 (ErbB2) (UniProt P04626). As to the kind of experiment: ligand binding assay ('Binding Activity'), format not described; lyophilized formula B2 after 4 C for 6 months.
For test [5], the target named is Her2 (ErbB2) (UniProt P04626). As to the kind of experiment: ligand binding assay ('Binding Activity'), format not described; lyophilized formula B4 after 4 C for 6 months.
The target in test [6] is Her2 (ErbB2) (UniProt P04626). As to the kind of experiment: ligand binding assay ('Binding Activity'), format not described; lyophilized formula B6 after 4 C for 6 months.
Test [7] concerns the target Her2 (ErbB2) (UniProt P04626). As to the kind of experiment: ligand binding assay ('Binding Activity'), format not described; lyophilized formula B2 after 25 C for 3 months.
Test [8] has as its target Her2 (ErbB2) (UniProt P04626). As to the kind of experiment: ligand binding assay ('Binding Activity'), format not described; lyophilized formula B4 after 25 C for 3 months.
The target of test [9] is Her2 (ErbB2) (UniProt P04626). As to the kind of experiment: ligand binding assay ('Binding Activity'), format not described; lyophilized formula B6 after 25 C for 3 months.

B1: recombinant humanized anti-Her2 monoclonal antibody-MMAE conjugate (RC48-vc-MMAE) (antibody, INN chains, looked up, V domains shown, not shown: a dimerising Fc or GST)
VH: EVQLVQSGAEVKKPGATVKISCKVSGYTFTDYYIHWVQQAPGKGLEWMGRVNPDHGDSYYNQKFKDKATITADKSTDTAYMELSSLRSEDTAVYFCARNYLFDHWGQGTLVTVSS
VL: DIQMTQSPSSVSASVGDRVTITCKASQDVGTAVAWYQQKPGKAPKLLIYWASIRHTGVPSRFSGSGSGTDFTLTISSLQPEDFATYYCHQFATYTFGGGTKVEIK
modifications: vedotin: mc-vc-PAB-MMAE payload
Broadly, the IC50 is the concentration that inhibits the measured activity by half. A high value points to weaker potency in that assay. On to B1, for which the IC50 with Her2 (ErbB2) [1] worked out at 0.0152 nM; with Her2 (ErbB2) [2] it was 0.0126 nM; in the test with Her2 (ErbB2) [3], 0.0148 nM; in the test with Her2 (ErbB2) [4], 0.0132 nM; in the test with Her2 (ErbB2) [5], 0.0122 nM; with Her2 (ErbB2) [6], 0.0133 nM. Also, the IC50 was found to be 0.0133 nM with Her2 (ErbB2) [7], 0.0127 nM with Her2 (ErbB2) [8] and 0.0129 nM with Her2 (ErbB2) [9].
